Data: PMC3873461, “The CD8-Derived Chemokine XCL1/Lymphotactin Is a Conformation-Dependent, Broad-Spectrum Inhibitor of HIV-1” (PLoS Pathogens, 2013)
Positions count from the first letter of the chain named. Names and notes keep the numbering of the source.

B1: recombinant wild type (WT) XCL1/lymphotactin (ligand, human, UniProt P47992 22-114, looked up)
chain: VGSEVSDKRTCVSLTTQRLPVSRIKTYTITEGSLRAVIFITKRGLKVCADPQATWVRDVVRSMDRKSNTRNNMIQTKPTGTQQSTNTAVTLTG
notes: also called XCL1 WT
B2: XCL1 W55D, variant that preferentially adopts the all-β, alternatively-folded dimeric structure (ligand, human, UniProt P47992 22-114, looked up)
chain: B1 chain with W55D

Target: T1, purified YU2 gp120 protein (HIV-1 external envelope glycoprotein) (HIV-1 (strain YU2), UniProt P35961 32-498)
T1 construct: also called HIV-1 envelope glycoprotein gp120; source: purified
Test: pull-down
Details: both partners purified

Binder | binding result
B1 | binds
B2 | binds
